The results in this text go back to article PMC6638966, “The demethylase NMAD-1 regulates DNA replication and repair in the Caenorhabditis elegans germline” (PLoS Genetics, 2019).

The assay has as its target T1, GST-tagged TOP-2 (C. elegans, UniProt Q23670 1-1520).
T1 construct: TOP-2, topoisomerase II of C. elegans; also called topoisomerase II; source: E. coli BL21, purified (glutathione sepharose 4B)
Briefly: pull-down; 3 μg GST-tagged protein on glutathione sepharose 4B beads with 1 μg HIS-tagged NMAD-1 in TAP wash buffer (50 mM Tris-HCl pH 8.0, 100 mM KCl), 1 h at 4 °C; blot probed with HIS antibody. Particulars: both partners purified.

T1 sequence (Q23670 whole entry): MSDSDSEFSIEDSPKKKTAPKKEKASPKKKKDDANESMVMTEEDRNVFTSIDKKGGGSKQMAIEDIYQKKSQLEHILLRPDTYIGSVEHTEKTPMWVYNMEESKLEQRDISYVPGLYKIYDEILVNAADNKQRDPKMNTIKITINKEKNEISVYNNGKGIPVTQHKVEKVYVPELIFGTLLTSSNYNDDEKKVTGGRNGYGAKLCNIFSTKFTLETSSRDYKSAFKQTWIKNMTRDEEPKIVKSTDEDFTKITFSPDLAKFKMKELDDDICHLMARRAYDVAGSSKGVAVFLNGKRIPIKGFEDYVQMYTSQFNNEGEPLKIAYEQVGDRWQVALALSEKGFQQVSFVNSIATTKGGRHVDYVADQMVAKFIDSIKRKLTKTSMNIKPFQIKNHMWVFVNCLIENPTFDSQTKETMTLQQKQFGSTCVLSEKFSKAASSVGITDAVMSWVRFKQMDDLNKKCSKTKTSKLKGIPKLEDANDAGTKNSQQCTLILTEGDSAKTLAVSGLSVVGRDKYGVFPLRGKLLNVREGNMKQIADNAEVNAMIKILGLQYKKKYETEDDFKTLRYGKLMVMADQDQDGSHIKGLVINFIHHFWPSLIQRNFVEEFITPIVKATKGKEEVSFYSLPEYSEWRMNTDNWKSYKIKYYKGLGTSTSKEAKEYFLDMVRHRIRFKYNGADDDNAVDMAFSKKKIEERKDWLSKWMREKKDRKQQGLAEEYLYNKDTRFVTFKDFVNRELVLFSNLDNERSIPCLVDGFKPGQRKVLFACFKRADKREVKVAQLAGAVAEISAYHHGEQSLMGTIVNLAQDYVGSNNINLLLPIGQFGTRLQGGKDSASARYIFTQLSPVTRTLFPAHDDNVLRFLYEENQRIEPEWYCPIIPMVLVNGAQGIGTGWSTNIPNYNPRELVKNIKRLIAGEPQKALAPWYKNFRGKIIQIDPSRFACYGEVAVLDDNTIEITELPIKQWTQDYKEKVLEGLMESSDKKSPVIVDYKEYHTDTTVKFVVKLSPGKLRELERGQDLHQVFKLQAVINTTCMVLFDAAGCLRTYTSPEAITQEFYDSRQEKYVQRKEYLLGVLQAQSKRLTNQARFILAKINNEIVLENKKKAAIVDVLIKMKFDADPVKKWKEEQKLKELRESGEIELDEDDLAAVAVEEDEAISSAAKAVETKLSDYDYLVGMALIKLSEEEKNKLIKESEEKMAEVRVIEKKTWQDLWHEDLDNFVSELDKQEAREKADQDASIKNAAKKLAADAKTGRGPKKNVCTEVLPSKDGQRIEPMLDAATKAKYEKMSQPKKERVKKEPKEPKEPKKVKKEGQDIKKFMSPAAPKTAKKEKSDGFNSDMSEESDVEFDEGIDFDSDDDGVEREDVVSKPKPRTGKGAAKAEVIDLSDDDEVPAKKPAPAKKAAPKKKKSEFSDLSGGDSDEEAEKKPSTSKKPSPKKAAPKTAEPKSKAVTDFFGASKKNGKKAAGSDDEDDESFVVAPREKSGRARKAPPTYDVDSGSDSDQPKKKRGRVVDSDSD

B1: recombinant His-tagged NMAD-1 (enzyme, C. elegans, UniProt Q8MNT9 1-291, looked up)
chain: MGSAEQACGCKGARFCALCETTERVKKLRVVEDKHVNYKVFIYDHIRQIAIPTTNLNSQSSLEDIIDESTSCQSVSTDGSIEIDGLTLIHNFLSESEESKILNMIDTVEWAQSQSGRRKQDYGPKVNFKHKKVKTDTFVGMPEYADMLLNKMSEYDVKKLGNYQPFEMCNLEYEEVKKSAIEMHQDDMWIWGNRLISINLINGSVMTLSNDNKSFLCYVHMPHRSLLCMADECRYDWKHGVLAHHIRGRRIALTMREAAKDFAEGGELYEKYGAELIRLGNIRVPLSKTSV
notes: NMAD-1 (F09F7.7) of C. elegans; also called HIS:NMAD-1; source: E. coli BL21, purified (Ni-NTA)
On to B1, for which the binding result is recorded as “binds”.
